Experimental data reported in patent US20220315663A1 (published 2022).

Molecular target: T1, cynomolgus monkey CD79b antigen (cynomolgus monkey)
T1 construct: also called cyno CD79b; CD9W1.001
Assay: SPR, cyno CD79b against human CD79b (refers to Table 32)

B1: C923B38 (trispecific antibody, human IgG1, kappa, L234A L235A)
heavy: QVQLQESGPGLVKPSETLSLTCSVSGASISSFYWSWIRQPADEGLEWIGRISPSGKTNYIPSLKSRIIMSLDASKNQFSLRLNSVTAADTAMYYCARGEYSGTYSYSFDVWGQGTMVTVSSASTKGPSVFPLAPSSKSTSGGTAALGCLVKDYFPEPVTVSWNSGALTSGVHTFPAVLQSSGLYSLSSVVTVPSSSLGTQTYICNVNHKPSNTKVDKKVEPKSCDKTHTCPPCPAPEAAGGPSVFLFPPKPKDTLMISRTPEVTCVVVSVSHEDPEVKFNWYVDGVEVHNAKTKPREEQYNSTYRVVSVLTVLHQDWLNGKEYKCKVSNKALPAPIEKTISKAKGQPREPQVYTLPPSREEMTKNQVSLSCAVKGFYPSDIAVEWESNGQPENNYKTTPPVLDSDGSFFLVSKLTVDKSRWQQGNVFSCSVMHEALHNRFTQKSLSLSPGK
light: DIVMTQSPLSLSVTPGEPASISCRSSESLLDSEDGNTYLDWFLQKPGQSPQLLIYTLSYRASGVPDRFSGSGSDTDFTLHISSLEAEDVGLYYCMQRMEFPLTFGQGTKVEIKRTVAAPSVFIFPPSDEQLKSGTASVVCLLNNFYPREAKVQWKVDNALQSGNSQESVTEQDSKDSTYSLSSTLTLSKADYEKHKVYACEVTHQGLSSPVTKSFNRGEC
chain: EIVLTQSPATLSASPGERVTLSCSASSSVSYMNWYQQKPGQAPRRWIYDSSKLASGVPARFSGSGSGRDYTLTISSLEPEDFAVYYCQQWSRNPPTFGGGTKVEIKGGSEGKSSGSGSESKSTGGSQVQLVQSGAEVKKPGSSVKVSCKASGYTFTRSTMHWVKQAPGQGLEWIGYINPSSAYTNYNQKFQGRVTLTADKSTSTAYMELSSLRSEDTAVYYCASPQVHYDYAGFPYWGQGTLVTVSSEPKSSDKTHTCPPCPAPEAAGGPSVFLFPPKPKDTLMISRTPEVTCVVVSVSHEDPEVKFNWYVDGVEVHNAKTKPREEQYNSTYRVVSVLTVLHQDWLNGKEYKCKVSNKALPAPIEKTISKAKGQPREPQVYTLPPSREEMTKNQVSLWCLVKGFYPSDIAVEWESNGQPENNYKTTPPVLDSDGSFFLYSKLTVDKSRWQQGNVFSCSVMHEALHNHYTQKSLSLSPGKGGSEGKSSGSGSESKSTGGSAIQLTQSPSSLSASVGDRVTITCRASSSVSYIHWFQQKPGKAPKPLIYATSNLASGVPSRFSGSGSGTDFTLTISSLQPEDFATYYCQQWTSNPPTFGQGTKLEIKGGSEGKSSGSGSESKSTGGSQVQLVQSGAEVKKPGSSVKVSCKASGYTFTSYNMHWVRQAPGQGLEWMGAIYPGNGDTSYAQKFQGRVTITADKSTSTAYMELSSLRSEDTAVYYCARSTYYGGDWYFNVWGQGTLVTVSS
notes: IgG1 trispecific: Fab to CD79b; second chain carries the CD3 scFv, the Fc and the CD20 scFv; also called CD79b×CD20×CD3 trispecific antibody
  fold weaker affinity compared to human: > 10000 fold
